Values quoted from earlier work, collected in publication PMC6194691.

Target: transferrin receptor (Rattus norvegicus) (UniProt Q99376)
Sequence of UniProt Q99376 (Q99376 whole entry): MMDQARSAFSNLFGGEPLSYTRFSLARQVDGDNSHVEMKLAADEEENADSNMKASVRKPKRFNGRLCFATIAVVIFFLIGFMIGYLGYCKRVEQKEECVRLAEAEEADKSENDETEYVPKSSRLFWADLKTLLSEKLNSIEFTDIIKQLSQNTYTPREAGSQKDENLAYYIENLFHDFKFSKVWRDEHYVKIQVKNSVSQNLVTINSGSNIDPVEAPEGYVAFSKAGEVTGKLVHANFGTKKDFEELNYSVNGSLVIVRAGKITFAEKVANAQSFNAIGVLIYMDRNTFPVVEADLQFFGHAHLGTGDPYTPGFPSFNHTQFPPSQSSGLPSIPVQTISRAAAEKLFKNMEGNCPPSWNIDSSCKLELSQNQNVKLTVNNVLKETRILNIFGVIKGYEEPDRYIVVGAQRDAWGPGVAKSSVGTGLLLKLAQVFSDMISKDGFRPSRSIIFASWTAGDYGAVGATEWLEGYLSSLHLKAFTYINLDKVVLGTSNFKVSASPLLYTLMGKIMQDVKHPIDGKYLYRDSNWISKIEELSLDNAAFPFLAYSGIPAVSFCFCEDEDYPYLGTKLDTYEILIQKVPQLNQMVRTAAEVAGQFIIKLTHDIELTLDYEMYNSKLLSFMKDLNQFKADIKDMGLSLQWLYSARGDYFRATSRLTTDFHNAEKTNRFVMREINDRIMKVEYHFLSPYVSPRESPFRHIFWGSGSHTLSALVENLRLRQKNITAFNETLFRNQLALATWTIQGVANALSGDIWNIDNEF

Kd: < 0.03 µM
Substance: apo-transferrin (from UniProt P12346)
